Assay: soluble on expression in E. coli; label from the status in PepcDB or PDB records

| Sequence | soluble on expression in E. coli |
| --- | --- |
| LAVLMVLAVNFGTVTTFAAMSDEAESISVNKPVTDNLSSVNDVKYYEVELPAPGKVNLSFSHANLERTYVYWKVTMFDSVENEVLYFESTGTNTDGKSMSVYLDKGTYYVRVKSEGYWYSTTDYTLCVNYTENKGEYEIEPNYSKELATEISVNKPVIGNHRVKGDTDFYKFTISEPGKVDLSFNHANLERTYVYWKVTMFDSVENIVLYFESTGTNTTGKSMNAYLSEGTYYIRVTTDDYWHSTADYTLCVNYTENQGEYEIEPNNSQDNATLIEVDEPVTGNLRTSSDVDYYRFVMPDSGKVYLGFNHPNLERTYVYWKVSLYDANGNRLYQLNSRGTDTVGKSDEIKIGSGTYYVKVEYEGYWHSSADYSLTVNTVGGIPKVKVFLNGKRIRFDQPPIIQNGRTLVPLRAIFEAMNATVSWDDKTKTVTAKKGDTTIVMTIGNKTMKKNGVAIELDVPPQIVNGRTLVPARAVAESFGAKVDWDGSTRTVTITEGN | not soluble |
| LEGTAGTITSNEWSSPTSPEGSTASGGSQALDKPIDNDAEGVWSPDIEQSFQEALAIYPPCGRRKIILSDEGKMYGRNELIARYIKLRTGKTRTRKQVSSHIQVLARRKAREIQAKLKDQAAKDKALQSMAAMSSAQIISATAFHSSMALARGPGRPAVSGFWQGALPGQAGTSHDVKPFSQQTYAVQPPLPLPGFESPAGPAPSPSAPPAPPWQGRSVASSKLWMLEFSAFLEQQQDPDTYNKHLFVHIGQSSPSYSDPYLEAVDIRQIYDKFPEKKGGLKDLFERGPSNAFFLVKFWADLNTNIEDEGSSFYGVSSQYESPENMIITCSTKVCSFGKQVVEKVETEYARYENGHYSYRIHRSPLCEYMINFIHKLKHLPEKYMMNSVLENFTILQVVTNRDTQETLLCIAYVFEVSASEHGAQHHIYRLVKE | soluble |
| LEMKGKRMSVTAVMRELEKEENLYRRSGGGITLSGGEPLAQPEFARELLKACKAKGWHTAIETSGFTTKAVIDEVFPYVDLALTDIKAIDPEIHERNTGVNNRVILENLLRISFLTKVVVRIPVIPGVNDNSQEIHNIAEFARLMQNVDTIHLLPYHSFGENKYNLLGRQYPMGDTKSIEESQMAELKAMVESLGFNCHIGG | not soluble |
| LEYLKNNCKVIIVDMHAEATSEKCALAWYLDGRVSCVLGTHTHVQTADERILPFGTAFISDVGMTGPYDGIIGVNREIVIQKFLTHMPVRFEVATGRVQFNAVYLEIDEKTGKTTGIERIYEILEV | not soluble |
| LFNYKPGTSVFSIATAGCNFKCKHCQNWEISQSLPEEVPFSELTPEDVVELAKNYLCEGIAYTYTEPTIFYEFMQETAKLAKKHDLFNVMVTNGYIEKEPLKKLEIDAMNIDIKGNSEFYKKICLAELEPVLETCRLAKKLGIHIEITNLVVPTYNDNPKYIESIINFVKDELGVDTPLHFTAFYPHYKLTSVPSTRMETIKKARDMALNAGLHYVYAGNV | not soluble |
| LGSLLEVAIPKPGNVSRYKDFEDLTFYHFLFGNTALIGPYFEATERGILLKEGKINESEVGIGELIRMAVAATKKYQDANPNFGIIVLSIPLIVSLSSGASIEDAGKMATRLISKSTPLDTVELYKAIRIANPKGIPRGVKYDVYSDTSFEDLVRDGINLYKLAEISCERELVFCEWLNNYDLTYETLKLLENNLEKEDLEGKVRKTFVVLLSKYEDTLIIRKAGIQEAKKVKEMATQLLKNKITEEEFERFMYEKRDLRNPGSLADIMATAL | not soluble |
| LKRLFWPVLLVVLGFGTYEGAQRLLPYADRPIARINVQGDLSYISQQAVQQRIAPYVASSFFKIDLAAMRTELEQMPWIAHAEVRRVWPDQVVIRLEEQLPVARWGDEALLNNQGQAFTPRELSNYEHLPQLFGPQRAQQQVMQQYQVLSQMLRPMGFSIVRLELRERGSWFLTTGAGSAGPGIELLLGRDHLVEKMRRFIAIYDKTLKEQITNIARVDLRYSNGLAVGWREQAAATTDKPAVAKN | not soluble |
| LKSESAEKTREVLWQQYYASNPPDHAVLEVLATPVREALLARFGQHQGSVVPAIDLPELRSVLQQFDSFGKRWEAILLQVLEGIKPNESQVGLPYLSELINKELMILLPSNS | soluble |
| LLLLLPQGGDVRGGPGVREPGQAPQDRGGRDRLLGRGERESPGSDASGGERYSSGGGDGGDGDGGSGGGGDGEEGEGGEEGDEGDGDEGGSGGDESGSGGGPRSMPLSTEGGGSHHKVSVSPVVHVRGLCESVVEADLVEALEKFGTICYVMMMPFKRQALVEFENIDSAKECVTFAADVPVYIAGQQAFFNYSTSKRITRPGNTDDPSGGNKVLLLSIQNPLYPITVDVLYTVCNPVGKVQRIVIFKRNGIQAMVEFESVLCAQKAKAALNGADIYAGCCTLKIEYARPTRLNVIRNDNDSWDYTKPYLGRRDRGKGRQRQAILGDHPSSFRHDGYGSHGPLLPLPSRYRMGSRDTPELVAYPLPQASSSYMHGGSPSGSVVMVSGLHQLKMNCSRVFNLFCLYGNIEKVKFMKTIPGTALVEMGDEYAVERAVTHLNNVKLFGKRLNVCVSKQHSVVPSQIFELEDGTSSYKDFAMSKNNRFTSAGQASKNIIQPPSCVLHYYNVPLCVTEETFTKLCNDHEVLPFIKYKVFDAKASAKTLSGLLEWKCKTDAVEALTALNHYQIRVPNGSNPYTLKLCFSTSSHL | soluble |
| LLSKKEIITVNVAPGHHFNDVITVKGMADEEIDKTTCGDLKFHLTEKQENLEQKQIFLKNFDDGAGEDLYTSITISLSEALTGFEKFLTKTFDDRLLTLSVKPGRVVRPGDTIKIANEGWPILDNPHGRCGDLYVFVHIEFPPDNWFNEKSELLAIKTNLPSSSSCASHATVNTEDDSNLTNNETISNFRIIHTDDLPEGIRPFKPEAQDSAHQKARSSYCCIQ | not soluble |
| LNDPLDSGRFSRKQLDKKYKHAGDFGISDTKKNRETLTKFRDAIEEHLSDKDTVEKGTYRREKGSKVYFNPNTMNVVIIKSNGEFLSGWKINPDADNGRIYLETGEL | soluble |
| LPAFFKTFDRQEDFMVDVFRLNIDALKENYLPLARFFENLNENTGNESSVILETSKSGMPNFRVKKGEHTFFVHSPYDPRTEAIRWAEKIDLKGFDTIAVLGIGCGYHIEELEKKYPDKNKIVIEPDRNVFLKLLNTRDITHLISSKNILFIISDNTEEIAKVFLLLREEGEIDSVEFNELLSYRKVYEDWWLELKKEYIKFARLHQINTNTSVFFAEAWLTNLFEGMWQLTKSVHIKEYKSAFANIPAIVVSAGPALNKNVHLLKELYNKAVIISAGSALNILESRGITPHIMVGVDGGEAESRIFNNVKSNEIYFAYSLSVHYDGLKNYSGPKIYFKTNVLGYGDWIDEKLGIEGAENLRSGSSVSNLSLDIARYMGCNPIIVIGQNLSFPNLESYADGAVLKQEQDRHIQQCVENSNKYYVLEKDIDGNDVYTTHSMLSIRFYFEEYIKNHPDRLYLNGSEEGLPIKGMKNMPLKEIVEKYCTKEYDIKGILDKKFKEEFEAENVKAKEIKIRRILEDIHKESTEIRQKAIKRIDLILDILSNIRGSHNDKWEEIDRLTDEIESSDLYKYFVEPLSKYFIQAVKNERERKMESIPDIQERLKYLYEGLLIQYVEVKDKIVLIDDLSQKIIENIDKKEATKCLSMV | soluble |
| LPSPSRQASTRRMSIGESIDGKINDWEEPRLDIEGFVVDYFTHRIRQNGMEWFGAPGLPSGVQPEHEMMRVMGTIFEKKHAENFETFSEQLLAVPRISFSLYQDVVRTVGNAQTDQSPMSYGRLIGLISFGGFVAAKMMESVELQGQVRNLFVYTSLFIKTRIRNNWKEHNRSWDDFMTLGKQMKEDYERAEAEKVGRRKQNRR | soluble |
| LPTGIIIAATPLGNIGDASPRLVHALANATVVAAEDTRRTASLAAALGVEIKGQLVSNFDHNEQARVGKLIEAARTGTVLVVSDAGMPVVSDPGFALIDAAHDANIPVTCFPGPS | not soluble |
| LQMTQSPSFLSASVGDRVSITCRASQDIQKFLAWYQLTPGDAPKLLMYSASTLQSGVPSRFSGSGSGTEFTLTISGLQPEDFATYYCQHLKRYPYTFGQGTKLEISRTVAAPSVFIFPPSDEQLKSGTASVVCLLNNFYPREAKVQWKVDNALQSGNSQESVTEQDNKDSTYSLSSTLTLSKADYEKHKVYACEVTHQGLSSPVTKSFNRGEC | soluble |
| LRDFNYSIAGNLTWARNKVIDLLEPAGEKNNPRQRSTGHSMSQYFGYEALGLFQSDEEANNWPQPQFGKAKAGDIKYKDQNGDGIIDAEDEIAIGRSNYPELVYGLNLNAEWKGFDITFFFQGAALADFYYNGYLAFPYIEGRGGALLEHHIGNTWTPENPKAEFPRLYYGGNANNQLFSSFWMRNGSYLRLKNVEIGYDFKKLLLSKVSEIQGLRLYFSGSNLLTWSQIKYFDPELRSTDGSAYPQMKTFVFGANITF | not soluble |
| LSAQEIIQYISDAKKSTPLKVYVNGHFENVTFPESFKVFGSEHSKVIFCEANEWKQFYQQNHSLITELEIEMDRRNSAIPLKDLTNTN | soluble |
| LSDKLMERLKERAEGIFVSGPPGSGKSTFVAALAEFYRSQGKIVKTMESPRDLQVSKEITQYAPLEGDMEKTCDILLLVRPDYTIYDEVRKTRDFEIFADMRMAGVGMVGVVHASKPIDAIQRLIGRVELGVIPQVVDTVIFIKDGKIQKVYEIDFTVKVPYG | not soluble |
| LYAPLVSLMITVPVFGQHEYTHALVADLEREGADYLIVDNRGDYPRIGTERVSTPGENLGWAGGSELGFRLAFAEGYSHAMTLNNDTRVSKGFVAALLDSRLPADAGMVGPMFDVGFPFAVADEKPDAESYVPRARYRKVPAVEGTALVMSRDCWDAVGGMDLSTFGRYGWGLDLDLALRARKSGYGLYTTEMAYINHFGRKTANTHFGGHRYHWGASAAMIRGLRRTHGWPAAMGILREMGMAHHRKWHKSFPLTCPASC | not soluble |
| LYFQGMSLEPFGARLSRAMDDRGPLCVGIDPHASLLADWGLSDDVAGLERFSRTVVEALGEHVAVFKPQSAFFERFGSRGVAVLEKTVAEARAAGALVVMDAKRGDIGSTMAAYAEAFLRKDSPLFSDALTVSPYLGYGSLRPAVELARESGAGLFVLALTSNPEGGEVQHAVRTDGRDVAATMLAHLAAENAGEEPLGSFGAVVGATLGDLSSYDLDINGPLLAPGIGAQGAAPADLPGVFGAAVRNVVPNVSRGVLRHGPDVRALRTAADRFAEEIRAAVAA | soluble |
| LYGYYCMQEEEQLVYWYSGLYLQPQHFQSIDLHHGFMLARSRQLSQPHHQGYYECCINDDLLKEDTVRVEKIKAVLSSGYYIEYPGNCVVQDKCLTNLKGSDHGTVDLWLALKRFNSGHKNVSSVNDKRGSARWISSDDERNMRNVYHDSQDADITRIKYDIQILTDEEKDNTTDYEYLPLTRIIYGNNSLCIDDECSFPVMRLSANHKLRNKIAEIYSDIKFYKNRLEKYRYTERTVSDGHLYNFLILCAINRTLPLLSSFINEDAIHPWLYYMALCQFAGEISTFHNSGLSDTRIVELSYNHYEQISCFSDLQYYIKLILDDSCRDKIISVEFRKITTDTLICNFDEYGAGSNSDYYIKLTSDTFRKNKLIALPEIKIAPSEHIDMIIQHALPGIKFTVMDAVTSDLQVRENTIWLKIDKHSELWTLAQTQKRVAFYWSCSPDDLLVELVLSQEKYAVSRPKQDNGSFHPAVGR | not soluble |
| MAAAKRKLVFDSPNESSVNFETSPNFPKEWKIDGMDIENRIRNFRDELQAQGLCPVGSAGIDPKSKFRTEYRRIVNANTILTDVLRLQQKEGEWLKNASGLLEYDIQSLHARRDHLDNAVEQLKSQLSRLDSSVAILKSQQMAVKSVLELREDEYLADDADSNLPDEFLKFSKISKLCAASLQSYENVKKRNEEMQKELIAERNRQRKLHDATMKMMEEKERVRVEQLEDLFKDFSLEQLTRLRDRIRQAQK | not soluble |
| MAAATTTASAFKWPWQYDFPPFFTIQKSLNTKDKQLEAWARLVIDYAQHNKIYSLDIAEATTSELFNNQKLNRRLSTDGVNTVLQYLEQKKLIEFTDNGRTRFHIFWRRPDVWANMIYQWAVENAFINTPLTLYEITHGDDTTNESFHNLEREILMKALTCLEEQRRAQLMNIGGDNEGVKFI | soluble |

Source: the DeepSol protein solubility set
